The record followed here is the DeepSol protein solubility set.

The nature of the data set: soluble on expression in E. coli; label from the status in PepcDB or PDB records.
Turning to “MSLRGLSTDHTTQIVNLEDNTQDLLLLLSLFKKITNVNPSKNFNVILASSLNEVGTLKVILNLYSSAHLIRINDEPILGQITLTFISELCSIEPIAAKLINSGLYSVLLESPLSVAIQQGDIKPEFSPRLHNIWSNGLLSIVLLLLSQFGIKVLPETCLFVSYFGKQIKSTIYNWGDNKLAVSSSLIKETNQLVLLQKMLNLLNYQELFIQPKNSDDQQEAVELVIGLDSEHDKKRLSAALSKFLTHPKYLNSRIIPTTLEEQQQLEDESSRLEFVKGISRDIKALQDSLFEGHHHHHH”, the “soluble on expression in E. coli” value was “not soluble”.
For “MSNTQAERSIIGMIDMFHKYTRRDDKIDKPSLLTMMKENFPNFLSACDKKGTNYLADVFEKKDKNEDKKIDFSEFLSLLGDIATDYHKQSHGAAPCSGGSQ”, the “soluble on expression in E. coli” value is “not soluble”.
As for “MKSTDQFQTHEVPWEEFIEALREEMKKQVGADIIDTVVCNLEDGFEVYTYVQGDLDFEYKEALERKYGSDAKTPNVLTIMLLASIYNTSEENIRLHADHKENPIVEVYVKQGNTL”, the “soluble on expression in E. coli” value is “not soluble”.
As to “FSNNNFVYTDGTHFALNGKSLYINGFNAYWLMYIAYDPSTRIKVTNTFQQASKYKMNVARTWAFSHGGSRPLQSAPGVYNEQMFQGLDFVISEAKKYGIHLIMSLVNNWDAFGGKKQYVEWAVQRGQKLTSDDDFFTNPMVKGFYKNNVKVVLTRVNTITKVAYKDDPTILSWELINEPRCPSDLSGKTFQNWVLEMAGYLKSIDSNHLLEIGLEGFYGNDMRQYNPNSYIFGTNFISNNQVQGIDFTTIHMYPNQWLPGLTQEAQDKWASQWIQVHIDDSKMLKKPLLIAEFGKSTKTPGYTVAKRDNYFEKIYGTIFNCAKSGGPCGGGLFWQVLGQGMSSFDDGYQVVLQESPSTSRVILLQSLRLSKLS”, the “soluble on expression in E. coli” value is reported as “soluble”.
Take “MSLTTDVKDELSRLVVKSVSARRAEVTSLLRFAGGLHIVGGRVVVEAELDLGSIARRLRKEIFELYGYTAVVHVLSASGIRKSTRYVLRVANDGEALARQTGLLDMRGRPVRGLPAQVVGGSIDDAEAAWRGAFLAHGSLTEPGRSSALEVSCPGPEAALALVGAARRLGVGAKAREVRGADRVVVRDGEAIGALLTRMGAQDTRLVWEERRLRREVRATANRLANFDDANLRRSARAAVAAAARVERALEILGDTVPEHLASAGKLRVEHRQASLEELGRLADPPMTKDAVAGRIRRLLSMADRKAKVDGIPDTESVVTPDLLEDAEGHHHHHH”: the “soluble on expression in E. coli” value was “soluble”.
Consider “MSLKNPPQILMPDVVYTDLKKPILVHIKDDESSIKNVQIILHKDDNTSAMVIADEKISNLKDITLQVALPKFGYKENVKSFVLEVIAKDSSFWNFFSGNEARKQIAVLVDNTAPKINIISNSYQIEQGGAGAVVFKADDANLDKVYIETNKGKIFKATPYVKEGYYAALIAWDARDEEFRAFVIATDKAGNISKERIRYYFVNRKYRVSNINLTDKFLDGKIENLANQYAPKDNNLNRYEKFKFVNETLRNSNEKLIHEITSKVPEEKIDNFDLNLFLPLKNGMKVADFADHRYYSYNGQFVSDSYHMGLDLASVAQAPIISNNAGKVVFAAENGIYGLNLIVYHGFGVYSLYGHCSSKNVDLDEMINKQSIIGKTGTSGLALGDHLHFGVLVQGVETRPEQWQDKKWIENNIYNVLNDGKKIILGKNEGHHHHHH”, for which the “soluble on expression in E. coli” value was “soluble”.
As for “MTEYLSVSALTKYIKYKFDQDPHLQSVLIKGELSNFKKHSSGHLYFNVKDKESVISAMMFKGNASKLGFEPKEGDEVLIEARVSVYERRGNYQIYVNKMQLDGIGNLYQKLELLKKKLKKEGYFNQSNKKLIPKYPKKIAVLTASTGAAIRDIHSTINNRYPLVEQIQISTLVQGTQARQDIIEKIQYADSLDVDTIIVGRGGGSIEDLWNFNEEDVVKTIFNCQTPIISAVGHETDFTLSDFVADVRAATPTQAAVIATPDQYELLQQIKQYEYTLSRYIKQYIEHQKKQLNHISSYYKFKQPSLLYDQQIQKRDELERQLNHLLNTKVEKSKHHLKLLQQSFNFKNLNQQITQEKQSIYQLHSRLSKIMSNNITNLKTVLKNKLESLNNLSPTNTMLRGYAIVNKDNEVVTSTHKLNENDQISLTMKDGSVDATVKKVRCNDE”, the entry is “not soluble”.
As to “MSLKIERLNIIVTCPGRNFVTVKIVTDEGVHGLGDATLNGRELAVRAYLEDHVFPCLIGRDPRDIEDIWQYLYRGAYWRRGPVTMTAIAAIDMALWDIKSKLAGMPVYQLLGGKSREGLMVYGHANGRDHDEAIDAAHRHIAAGYRAIRVQSGVPGLAKVYGVGKTAGAYEPAEKGLPPEEPWDTALYLRHTPELFRKVRDALGDAPHLLHDAHHRLTPIEAARLGRDLEPYRLFWLEDATPAENQDAFRLIRSHTTTTLAVGEVFNSIWDCKDLIRDQLIDYIRATIVHAGGITHVRRIADYAAMYQVRTGFHGATDLSPVCMAAAVNFGLWAPNFGIQELMPHTALTDEVFPHNYRFDDGYLVMDDVPGLGVDIDETLAANYPYERAYLPVARLRDGSMWNWEGHHHHHH”, the “soluble on expression in E. coli” value is “not soluble”.
Turning to “MPKASLIIRERGLPKREVLLSPDRQWTIGRQLDCSIRLTDAYVSRLHAVINAFLFRGQPLYFIRDAHSRNGTFLNGFPLQHSTLLHHEDVIGVGTTLLVFYYPDMFREISLDECPLEHHHHHH”, the “soluble on expression in E. coli” value is “soluble”.
On to “EMYHHKKVLVLGLARSGVSAATIMHKLGAFVTVNDQKPFSENPEAQGLLEQGIKVICGSHPIELLDEGFELVIKNPGIPYNNPMIEKALKLKIPVI”, for which the “soluble on expression in E. coli” value is given as “not soluble”.
With “MARPNFRYTHYDLKELRAGTTLEISLSSVNNVRLMTGANFQRFTELLDFKYLGGVAKKSPIRIAVPETMHWHLIIDAEGHSGLAESSVKMLPAQPQATLTRKAS”, the “soluble on expression in E. coli” value is given as “soluble”.
To “MAHHHHHHMELPFQWDDGNFISPFLTSGDDTLRVLAAWLNDSPLLRFQHGGALRLTDLGCGDGSALLSLSAGLFTLWGASGCRDVSPLQLTAVGLDLDEELILAARRRAEAIIVPPPHRLHCVFETVDVRQLDAAQYFPLSESSRHVLFVYLLPEGLEAIREKLLEIISRVALLVSNRWEVPFLARWKRVKLQNLHLYQYVGDGAN” belongs “not soluble”.
For the sequence “GLIIGPEEDYDPGYFNNESDIIFQDLEKLKSHPAYLVVFLRYILSQADPGPLLFYLCSEVYQQTNPKDSRSLGKDIWNIFLEKNAPLRVKIPEMLQAEIDLRLRNNEDPRNVLCEAQEAVMLEIQEQINDYRSKRTLGLGSLYGENDLLGLDGDPLRERQMAEKQLAALGDILSKYEEDRSAPMDFAVNTFMSHAGIRLRESR”, the “soluble on expression in E. coli” value is given as “soluble”.
In the case of “MSLGRYCTDTEWTWFIPGKSPIKTDTIFREVAINGKTGLRTCHIDENTRFEVYEFWPSDLLRIFRRAGIQRHTPPFFEPGCALSGNSGISPQITSPQAGVSYIVHANTQSNKIIPLTAVTDAGIAHLYWFINESFVAETKSDEPYLWQAKPGKYVVRVVDDRGLSDARDITIQMVSEGHHHHHH”, the “soluble on expression in E. coli” value is recorded as “soluble”.
“DVQLVESGGGSVQAGGSLRLSCAASGSTDSIEYMTWFRQAPGKAREGVAALYTHTGNTYYTDSVKGRFTISQDKAKNMAYLRMDSVKSEDTAIYTCGATRKYVPVRFALDQSSYDYWGQGTQVTVSSRGRHHHHHH”: the “soluble on expression in E. coli” value is “soluble”.
Take “GPGSMVALIDTSCYSADCTLSALVPQHAMKPYRLLVTMELIASLGLKRFCRTVVPPPIGIKELLTYHAEDYILNLGLHSNRSWLWNTEVSKVTFSGDCPPVEGIVEYSLSTVSGSLMAAVLLNSGAVDTAIHWGGGMHHAKCGECSGFCYVNDIVIAIIELLKCHDRVLYVDLDMHHGDGVDEAFCRSRRVFTLSLHKFGESFFPGTGHPRDVGIGNGRHYTMNLAMWDGVDDFYYTTVFERALRSIVKRFNPNVVVLQCGADSLAGDRLGHFNLSSWGHGKCVEEVKKLGLPMLVVGGGGYTLRNVAKLWAYETSILCGKRLPLNTVIPLHRMPLSGWLFEESPQLLVSQDEENKPLPGVNVQRSFRVIIEQIDKHCPNIMTV”: the “soluble on expression in E. coli” value is “not soluble”.
